From patent US20230293673A1 (LA JOLLA INSTITUTE FOR IMMUNOLOGY, published 2023)

Molecular target: T1, gH ectodomain, FLAG-tagged and lacking its transmembrane anchor (gHecto^F_TBopt) (human cytomegalovirus (HCMV) strain TB40, UniProt P12824 24-709)
T1 sequence: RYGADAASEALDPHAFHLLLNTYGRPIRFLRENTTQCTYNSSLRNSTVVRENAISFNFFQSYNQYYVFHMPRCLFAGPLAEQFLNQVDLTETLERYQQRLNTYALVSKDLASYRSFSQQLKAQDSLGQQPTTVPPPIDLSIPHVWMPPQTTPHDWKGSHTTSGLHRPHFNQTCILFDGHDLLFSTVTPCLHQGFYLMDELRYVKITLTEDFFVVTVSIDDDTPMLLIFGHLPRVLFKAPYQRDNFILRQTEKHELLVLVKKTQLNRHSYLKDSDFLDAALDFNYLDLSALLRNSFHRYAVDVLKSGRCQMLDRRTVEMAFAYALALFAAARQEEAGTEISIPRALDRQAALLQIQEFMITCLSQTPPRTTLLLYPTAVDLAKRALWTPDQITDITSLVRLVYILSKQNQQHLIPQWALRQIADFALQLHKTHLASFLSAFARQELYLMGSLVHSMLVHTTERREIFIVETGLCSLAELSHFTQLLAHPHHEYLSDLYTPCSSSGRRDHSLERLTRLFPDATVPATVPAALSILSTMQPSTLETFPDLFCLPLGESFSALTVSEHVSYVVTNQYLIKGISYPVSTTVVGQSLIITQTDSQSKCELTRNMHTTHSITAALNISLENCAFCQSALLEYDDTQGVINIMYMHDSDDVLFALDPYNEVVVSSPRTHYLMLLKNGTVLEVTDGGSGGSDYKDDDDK
Experiment: His-tag purification from Expi293F supernatant after co-expression, Western blot (FIG. 2B)

B1: octahistidine-tagged UL141 ectodomain (UL141ecto_3C His) (other)
chain: DIAEKMWAENYETTSPAPVLVAEGEQVTIPCTVMTHSWPMVSIRARFCRSHDGSDELILDAVKGHRLMNGLQYRLPYATWNFSQLHLGQIFSLTFNVSTDTAGMYECVLRNYSHGLIMQRFVILTQLETLSRPDEPCCTPALGRYSLGDQIWSPTPWRLRNHDCGMYRGFQRNYFYIGRADAEDCWKPACPDEEPDRCWTVIQRYRLPGDCYRSQPHPPKFLPVTPAPPADIDTGMSPWATR
notes: extracellular domain; not shown: C-terminal '3C' site and octahistidine tag
binding result: binds
